From the supplement of paper PMC5998384 come the findings set out here.

In data set [1] the test system is HeLa Kyoto. As to the kind of experiment: solubility in G1/S (NP-40 vs SDS abundance) (log2 ratio); higher = more soluble. As to conditions: cell cycle stage: G1/S.
The test system of data set [2] is HeLa Kyoto. As to the kind of experiment: melting temperature (median over replicates), in situ; higher = more thermally stable.
Data set [3] has as its system HeLa Kyoto. As to the kind of experiment: solubility change mitosis vs G1/S (difference of NP-40 vs SDS log2 ratios) (log2 ratio difference); higher = more soluble in mitosis.
In data set [4] the test system is HeLa Kyoto. As to the kind of experiment: thermal stability score vs G1/S (z-score of summed log2 fold changes over temperatures); higher = more thermally stable than in G1/S.
The mark [5] stands for this setting: cell cycle stage: early G1 (4.5 h after nocodazole release).
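Throughout, for melting temperature (median over replicates), in situ: HeLa Kyoto cells synchronized by double thymidine or nocodazole block, proteins quantified by TMT10plex mass spectrometry, three independent biological replicates.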
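Throughout, for solubility change mitosis vs G1/S (difference of NP-40 vs SDS log2 ratios): synchronized HeLa Kyoto cells (double thymidine block for G1/S, nocodazole release for mitosis), protein amounts in NP-40 versus SDS lysates quantified by mass spectrometry, three biological replicates.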
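Throughout, for solubility in G1/S (NP-40 vs SDS abundance): HeLa Kyoto cells arrested at G1/S by double thymidine block, proteins quantified by TMT10plex mass spectrometry in mild NP-40 versus SDS extracts, three biological replicates.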
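Throughout, for thermal stability score vs G1/S (z-score of summed log2 fold changes over temperatures): synchronized HeLa Kyoto cells, proteins quantified by TMT10plex mass spectrometry, three biological replicates, mitosis taken 0.5 h after nocodazole release, G1/S directly after double thymidine block.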

Consider “MADAFGDELFSVFEGDSTTAAGTKKDKEKDKGKWKGPPGSADKAGKRFDGKLQSESTNNGKNKRDVDFEGTDEPIFGKKPRIEESITEDLSLADLMPRVKVQSVETVEGCTHEVALPAEEDYLPLKPRVGKAAKEYPFILDAFQREAIQCVDNNQSVLVSAHTSAGKTVCAEYAIALALREKQRVIFTSPIKALSNQKYREMYEEFQDVGLMTGDVTINPTASCLVMTTEILRSMLYRGSEVMREVAWVIFDEIHYMRDSERGVVWEETIILLPDNVHYVFLSATIPNARQFAEWICHLHKQPCHVIYTDYRPTPLQHYIFPAGGDGLHLVVDENGDFREDNFNTAMQVLRDAGDLAKGDQKGRKGGTKGPSNVFKIVKMIMERNFQPVIIFSFSKKDCEAYALQMTKLDFNTDEEKKMVEEVFSNAIDCLSDEDKKLPQVEHVLPLLKRGIGIHHGGLLPILKETIEILFSEGLIKALFATETFAMGINMPARTVLFTNARKFDGKDFRWISSGEYIQMSGRAGRRGMDDRGIVILMVDEKMSPTIGKQLLKGSADPLNSAFHLTYNMVLNLLRVEEINPEYMLEKSFYQFQHYRAIPGVVEKVKNSEEQYNKIVIPNEESVVIYYKIRQQLAKLGKEIEEYIHKPKYCLPFLQPGRLVKVKNEGDDFGWGVVVNFSKKSNVKPNSGELDPLYVVEVLLRCSKESLKNSATEAAKPAKPDEKGEMQVVPVLVHLLSAISSVRLYIPKDLRPVDNRQSVLKSIQEVQKRFPDGIPLLDPIDDMGIQDQGLKKVIQKVEAFEHRMYSHPLHNDPNLETVYTLCEKKAQIAIDIKSAKRELKKARTVLQMDELKCRKRVLRRLGFATSSDVIEMKGRVACEISSADELLLTEMMFNGLFNDLSAEQATALLSCFVFQENSSEMPKLTEQLAGPLRQMQECAKRIAKVSAEAKLEIDEETYLSSFKPHLMDVVYTWATGATFAHICKMTDVFEGSIIRCMRRLEELLRQMCQAAKAIGNTELENKFAEGITKIKRDIVFAASLYL [SKIV2L2]”, for which the “solubility in G1/S (log2)” value in the data set on HeLa Kyoto [1] is -0.515. The melting temperature in the data set on HeLa Kyoto [2] (cell cycle stage: G1/S) is 51.3 °C; with HeLa Kyoto [2] (cell cycle stage: mitosis) it was 51.2 °C. Besides, the “solubility change mitosis (log2)” value in the data set on HeLa Kyoto [3] was 0.119. Besides, the thermal stability score was 0.414 in the data set on HeLa Kyoto [4] (setting [5]) and -1.19 in the data set with HeLa Kyoto [4] (cell cycle stage: mitosis).

Consider “MADDIDIEAMLEAPYKKDENKLSSANGHEERSKKRKKSKSRSRSHERKRSKSKERKRSRDRERKKSKSRERKRSRSKERRRSRSRSRDRRFRGRYRSPYSGPKFNSAIRGKIGLPHSIKLSRRRSRSKSPFRKDKSPVREPIDNLTPEERDARTVFCMQLAARIRPRDLEEFFSTVGKVRDVRMISDRNSRRSKGIAYVEFVDVSSVPLAIGLTGQRVLGVPIIVQASQAEKNRAAAMANNLQKGSAGPMRLYVGSLHFNITEDMLRGIFEPFGRIESIQLMMDSETGRSKGYGFITFSDSECAKKALEQLNGFELAGRPMKVGHVTERTDASSASSFLDSDELERTGIDLGTTGRLQLMARLAEGTGLQIPPAAQQALQMSGSLAFGAVAEFSFVIDLQTRLSQQTEASALAAAASVQPLATQCFQLSNMFNPQTEEEVGWDTEIKDDVIEECNKHGGVIHIYVDKNSAQGNVYVKCPSIAAAIAAVNALHGRWFAGKMITAAYVPLPTYHNLFPDSMTATQLLVPSRR [RBM39]”, for which the “solubility in G1/S (log2)” value with HeLa Kyoto [1] was -1.07. Also, the melting temperature is 47.2 °C in the data set on HeLa Kyoto [2] (cell cycle stage: G1/S) and 49.3 °C with HeLa Kyoto [2] (cell cycle stage: mitosis). The “solubility change mitosis (log2)” value in the data set on HeLa Kyoto [3] is 0.531. The values for the thermal stability score with HeLa Kyoto [4] (setting [5]) and in the data set with HeLa Kyoto [4] (cell cycle stage: mitosis) were 1.15 and 5.82, respectively.

On to “MADEELEALRRQRLAELQAKHGDPGDAAQQEAKHREAEMRNSILAQVLDQSARARLSNLALVKPEKTKAVENYLIQMARYGQLSEKVSEQGLIEILKKVSQQTEKTTTVKFNRRKVMDSDEDDDY [PDCD5]”, for which the “solubility in G1/S (log2)” value in the data set on HeLa Kyoto [1] was -0.112. Further, the figures for the melting temperature in the data set with HeLa Kyoto [2] (cell cycle stage: G1/S) and with HeLa Kyoto [2] (cell cycle stage: mitosis) were 54.3 °C and 52.3 °C, respectively. Moreover, the “solubility change mitosis (log2)” value in the data set with HeLa Kyoto [3] was determined as 0.568. In addition, the thermal stability score with HeLa Kyoto [4] (setting [5]) is -5.9; in the data set on HeLa Kyoto [4] (cell cycle stage: mitosis) it was -7.32.

For “MADFLPSRSVLSVCFPGCLLTSGEAEQQRKSKEIDKCLSREKTYVKRLVKILLLGAGESGKSTFLKQMRIIHGQDFDQRAREEFRPTIYSNVIKGMRVLVDAREKLHIPWGDNSNQQHGDKMMSFDTRAPMAAQGMVETRVFLQYLPAIRALWADSGIQNAYDRRREFQLGESVKYFLDNLDKLGEPDYIPSQQDILLARRPTKGIHEYDFEIKNVPFKMVDVGGQRSERKRWFECFDSVTSILFLVSSSEFDQVLMEDRLTNRLTESLNIFETIVNNRVFSNVSIILFLNKTDLLEEKVQIVSIKDYFLEFEGDPHCLRDVQKFLVECFRNKRRDQQQKPLYHHFTTAINTENIRLVFRDVKDTILHDNLKQLMLQ [GNA13]”, the “solubility in G1/S (log2)” value in the data set with HeLa Kyoto [1] was -0.176. The melting temperature in the data set on HeLa Kyoto [2] (cell cycle stage: G1/S) was determined as 53.7 °C; with HeLa Kyoto [2] (cell cycle stage: mitosis) it was 53.5 °C. For the same sequence, in the data set with HeLa Kyoto [3], the “solubility change mitosis (log2)” value was -0.27. The figures for the thermal stability score in the data set on HeLa Kyoto [4] (setting [5]) and in the data set on HeLa Kyoto [4] (cell cycle stage: mitosis) were 1.07 and 1.56, respectively.

Consider “MADIIARLREDGIQKRVIQEGRGELPDFQDGTKATFHYRTLHSDDEGTVLDDSRARGKPMELIIGKKFKLPVWETIVCTMREGEIAQFLCDIKHVVLYPLVAKSLRNIAVGKDPLEGQRHCCGVAQMREHSSLGHADLDALQQNPQPLIFHMEMLKVESPGTYQQDPWAMTDEEKAKAVPLIHQEGNRLYREGHVKEAAAKYYDAIACLKNLQMKEQPGSPEWIQLDQQITPLLLNYCQCKLVVEEYYEVLDHCSSILNKYDDNVKAYFKRGKAHAAVWNAQEAQADFAKVLELDPALAPVVSRELRALEARIRQKDEEDKARFRGIFSH [AIP]”, for which, in the data set with HeLa Kyoto [1], the “solubility in G1/S (log2)” value came to 0.556. In addition, the melting temperature is 49.3 °C in the data set with HeLa Kyoto [2] (cell cycle stage: G1/S) and 50.3 °C with HeLa Kyoto [2] (cell cycle stage: mitosis). The “solubility change mitosis (log2)” value in the data set with HeLa Kyoto [3] was -0.0524. Also, the thermal stability score came to 1.14 with HeLa Kyoto [4] (setting [5]) and 1.52 in the data set with HeLa Kyoto [4] (cell cycle stage: mitosis).

As to “MADILSQSETLASQDLSGDFKKPALPVSPAARSKAPASSSSNPEEVQKEGPTALQDSNSGEPDIPPPQPDCGDFRSLQEEQSRPPTAVSSPGGPARAPPYQEPPWGGPATAPYSLETLKGGTILGTRSLKGTSYCLFGRLSGCDVCLEHPSVSRYHAVLQHRASGPDGECDSNGPGFYLYDLGSTHGTFLNKTRIPPRTYCRVHVGHVVRFGGSTRLFILQGPEEDREAESELTVTQLKELRKQQQILLEKKMLGEDSDEEEEMDTSERKINAGSQDDEMGCTWGMGEDAVEDDAEENPIVLEFQQEREAFYIKDPKKALQGFFDREGEELEYEFDEQGHSTWLCRVRLPVDDSTGKQLVAEAIHSGKKKEAMIQCSLEACRILDTLGLLRQEAVSRKRKAKNWEDEDFYDSDDDTFLDRTGLIEKKRLNRMKKAGKIDEKPETFESLVAKLNDAERELSEISERLKASSQVLSESPSQDSLDAFMSEMKSGSTLDGVSRKKLHLRTFELRKEQQRLKGLIKIVKPAEIPELKKTETQTTGAENKAKKLTLPLFGAMKGGSKFKLKTGTVGKLPPKRPELPPTLMRMKDEPEVEEEEEEEEEEEKEKEEHEKKKLEDGSLSRPQPEIEPEAAVQEMRPPTDLTHFKETQTHENMSQLSEEEQNKDYQDCSKTTSLCAGPSASKNEYEKSRGELKKKKTPGPGKLPPTLSSKYPEDDPDYCVWVPPEGQSGDGRTHLNDKYGY [SLC4A1AP]”, in the data set on HeLa Kyoto [1], the “solubility in G1/S (log2)” value was found to be 0.0907. Also, the results for the melting temperature in the data set with HeLa Kyoto [2] (cell cycle stage: G1/S) and in the data set on HeLa Kyoto [2] (cell cycle stage: mitosis) were 50.1 °C and 51.7 °C, respectively. Further, the “solubility change mitosis (log2)” value in the data set on HeLa Kyoto [3] is -0.0506. Besides, the thermal stability score in the data set with HeLa Kyoto [4] (setting [5]) was -0.0668; in the data set on HeLa Kyoto [4] (cell cycle stage: mitosis), 1.11.

“MADISLDELIRKRGAAAKGRLNARPGVGGVRSRVGIQQGLLSQSTRTATFQQRFDARQKIGLSDARLKLGVKDAREKLLQKDARFRIKGKVQDAREMLNSRKQQTTVPQKPRQVADAREKISLKRSSPAAFINPPIGTVTPALKLTKTIQVPQQKAMAPLHPHPAGMRINVVNNHQAKQNLYDLDEDDDGIASVPTKQMKFAASGGFLHHMAGLSSSKLSMSKALPLTKVVQNDAYTAPALPSSIRTKALTNMSRTLVNKEEPPKELPAAEPVLSPLEGTKMTVNNLHPRVTEEDIVELFCVCGALKRARLVHPGVAEVVFVKKDDAITAYKKYNNRCLDGQPMKCNLHMNGNVITSDQPILLRLSDSPSMKKESELPRRVNSASSSNPPAEVDPDTILKALFKSSGASVTTQPTEFKIKL [POLDIP3]”: the “solubility in G1/S (log2)” value with HeLa Kyoto [1] was -0.386. In addition, the figures for the melting temperature in the data set on HeLa Kyoto [2] (cell cycle stage: G1/S) and in the data set on HeLa Kyoto [2] (cell cycle stage: mitosis) were 49.3 °C and 49.9 °C, respectively. Further, in the data set with HeLa Kyoto [3], the “solubility change mitosis (log2)” value was found to be 0.732. Besides, the figures for the thermal stability score with HeLa Kyoto [4] (setting [5]) and with HeLa Kyoto [4] (cell cycle stage: mitosis) were -0.794 and -0.0102, respectively.

On to “MADLANEEKPAIAPPVFVFQKDKGQKSPAEQKNLSDSGEEPRGEAEAPHHGTGHPESAGEHALEPPAPAGASASTPPPPAPEAQLPPFPRELAGRSAGGSSPEGGEDSDREDGNYCPPVKRERTSSLTQFPPSQSEERSSGFRLKPPTLIHGQAPSAGLPSQKPKEQQRSVLRPAVLQAPQPKALSQTVPSSGTNGVSLPADCTGAVPAASPDTAAWRSPSEAADEVCALEEKEPQKNESSNASEEEACEKKDPATQQAFVFGQNLRDRVKLINESVDEADMENAGHPSADTPTATNYFLQYISSSLENSTNSADASSNKFVFGQNMSERVLSPPKLNEVSSDANRENAAAESGSESSSQEATPEKESLAESAAAYTKATARKCLLEKVEVITGEEAESNVLQMQCKLFVFDKTSQSWVERGRGLLRLNDMASTDDGTLQSRLVMRTQGSLRLILNTKLWAQMQIDKASEKSIRITAMDTEDQGVKVFLISASSKDTGQLYAALHHRILALRSRVEQEQEAKMPAPEPGAAPSNEEDDSDDDDVLAPSGATAAGAGDEGDGQTTGST [RANBP3]”, for which, in the data set on HeLa Kyoto [1], the “solubility in G1/S (log2)” value came to 0.168. In addition, the melting temperature in the data set with HeLa Kyoto [2] (cell cycle stage: G1/S) came to 55.3 °C; with HeLa Kyoto [2] (cell cycle stage: mitosis), 56.9 °C. Besides, the “solubility change mitosis (log2)” value in the data set on HeLa Kyoto [3] is -0.0529. In addition, the thermal stability score came out at 2.19 in the data set on HeLa Kyoto [4] (setting [5]) and 1.81 in the data set on HeLa Kyoto [4] (cell cycle stage: mitosis).

For the sequence “MADLLGSILSSMEKPPSLGDQETRRKAREQAARLKKLQEQEKQQKVEFRKRMEKEVSDFIQDSGQIKKKFQPMNKIERSILHDVVEVAGLTSFSFGEDDDCRYVMIFKKEFAPSDEELDSYRRGEEWDPQKAEEKRKLKELAQRQEEEAAQQGPVVVSPASDYKDKYSHLIGKGAAKDAAHMLQANKTYGCVPVANKRDTRSIEEAMNEIRAKKRLRQSGEELPPTS [SPAG7]”, the “solubility in G1/S (log2)” value with HeLa Kyoto [1] was found to be 0.68. The melting temperature in the data set with HeLa Kyoto [2] (cell cycle stage: G1/S) was found to be 53.1 °C; with HeLa Kyoto [2] (cell cycle stage: mitosis) it was 55 °C. Moreover, the “solubility change mitosis (log2)” value with HeLa Kyoto [3] was -0.0144. In addition, the figures for the thermal stability score in the data set on HeLa Kyoto [4] (setting [5]) and in the data set on HeLa Kyoto [4] (cell cycle stage: mitosis) were -1.04 and -1.5, respectively.
